Measurements as given in publication PMC3774712, “Characterization of a Self-sufficient Trans-Anethole Oxygenase from Pseudomonas putida JYR-1” (PLoS ONE, 2013).

Key:
GST-TAO (N1–104) = target: T1, GST-TAO (N1–104) (Pseudomonas putida, UniProt H8Y0R3); assay: ultrafiltration, fluorescence of unbound FAD; format: binding; conditions: 3 µM FAD, 3 µM enzyme, 20 mM Tris-HCl pH 8.0, 25°C
T1 construct: N-terminal fragment residues 1-104, N-terminal GST tag kept, expressed in E. coli BL21(DE3), purified
T1 sequence (H8Y0R3 1-104): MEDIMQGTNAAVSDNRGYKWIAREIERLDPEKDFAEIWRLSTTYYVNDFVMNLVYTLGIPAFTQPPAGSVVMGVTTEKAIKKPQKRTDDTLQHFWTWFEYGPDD
Description: ultrafiltration, fluorescence of unbound FAD on GST-TAO (N1–104)

[1] = target: T2, GST-TAO (wild-type, N1-348) (Pseudomonas putida, UniProt H8Y0R3); assay: ultrafiltration, fluorescence of unbound FAD; format: binding; conditions: 3 µM FAD, 3 µM enzyme, 20 mM Tris-HCl pH 8.0, 25°C
T2 construct: full length TAO (348 aa, 39,328 Da calculated), N-terminal GST tag kept (pGEX-5X-1), expressed in E. coli BL21(DE3), GSTrap purified, 68 kDa on SDS-PAGE
T2 sequence (H8Y0R3 1-348): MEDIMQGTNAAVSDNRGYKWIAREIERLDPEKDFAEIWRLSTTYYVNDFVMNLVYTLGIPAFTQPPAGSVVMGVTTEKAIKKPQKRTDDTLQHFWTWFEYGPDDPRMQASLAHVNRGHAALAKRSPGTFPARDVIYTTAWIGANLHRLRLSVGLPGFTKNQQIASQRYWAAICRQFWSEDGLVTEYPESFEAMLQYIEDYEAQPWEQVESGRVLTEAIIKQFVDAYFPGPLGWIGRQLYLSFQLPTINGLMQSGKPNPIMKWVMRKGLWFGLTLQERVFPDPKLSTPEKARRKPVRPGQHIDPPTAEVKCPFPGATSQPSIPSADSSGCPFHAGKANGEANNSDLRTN
Description: ultrafiltration, fluorescence of unbound FAD on GST-TAO (wild-type, N1-348)

GST-TAO (N175–348) = target: T3, GST-TAO (N175–348) (Pseudomonas putida, UniProt H8Y0R3); assay: ultrafiltration, fluorescence of unbound FAD; format: binding; conditions: 3 µM FAD, 3 µM enzyme, 20 mM Tris-HCl pH 8.0, 25°C
T3 construct: C-terminal fragment residues 175-348 (plasmid pGEX-TAO (C174)), N-terminal GST tag kept, expressed in E. coli BL21(DE3), purified
T3 sequence (H8Y0R3 175-348): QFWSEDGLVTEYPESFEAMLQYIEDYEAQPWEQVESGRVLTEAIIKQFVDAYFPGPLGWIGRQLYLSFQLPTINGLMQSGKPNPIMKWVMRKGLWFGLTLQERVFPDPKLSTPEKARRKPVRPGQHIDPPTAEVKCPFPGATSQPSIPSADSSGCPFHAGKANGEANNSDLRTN
Description: ultrafiltration, fluorescence of unbound FAD on GST-TAO (N175–348)

GST-TAO (N1–261) = target: T4, GST-TAO (N1–261) (Pseudomonas putida, UniProt H8Y0R3); assay: ultrafiltration, fluorescence of unbound FAD; format: binding; conditions: 3 µM FAD, 3 µM enzyme, 20 mM Tris-HCl pH 8.0, 25°C
T4 construct: N-terminal fragment residues 1-261, N-terminal GST tag kept, expressed in E. coli BL21(DE3), purified
T4 sequence (H8Y0R3 1-261): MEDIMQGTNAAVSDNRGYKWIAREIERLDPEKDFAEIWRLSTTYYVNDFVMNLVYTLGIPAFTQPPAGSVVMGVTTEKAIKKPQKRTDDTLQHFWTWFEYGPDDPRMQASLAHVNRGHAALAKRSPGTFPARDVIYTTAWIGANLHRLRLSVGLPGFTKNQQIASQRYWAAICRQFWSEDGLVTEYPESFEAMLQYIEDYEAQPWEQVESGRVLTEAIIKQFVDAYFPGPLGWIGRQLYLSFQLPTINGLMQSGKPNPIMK
Description: ultrafiltration, fluorescence of unbound FAD on GST-TAO (N1–261)

GST-TAO (N1–304) = target: T5, GST-TAO (N1–304) (Pseudomonas putida, UniProt H8Y0R3); assay: ultrafiltration, fluorescence of unbound FAD; format: binding; conditions: 3 µM FAD, 3 µM enzyme, 20 mM Tris-HCl pH 8.0, 25°C
T5 construct: N-terminal fragment residues 1-304, N-terminal GST tag kept, expressed in E. coli BL21(DE3), purified
T5 sequence (H8Y0R3 1-304): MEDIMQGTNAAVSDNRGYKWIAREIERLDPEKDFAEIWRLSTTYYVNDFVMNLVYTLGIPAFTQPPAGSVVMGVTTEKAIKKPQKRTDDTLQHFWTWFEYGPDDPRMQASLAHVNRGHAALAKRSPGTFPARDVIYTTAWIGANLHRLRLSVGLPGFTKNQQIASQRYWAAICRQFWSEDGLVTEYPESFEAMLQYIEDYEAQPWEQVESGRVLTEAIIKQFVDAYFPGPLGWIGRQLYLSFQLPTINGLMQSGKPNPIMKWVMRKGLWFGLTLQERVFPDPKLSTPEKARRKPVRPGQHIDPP
Description: ultrafiltration, fluorescence of unbound FAD on GST-TAO (N1–304)

GST-TAO (N1–174) = target: T6, GST-TAO (N1–174) (Pseudomonas putida, UniProt H8Y0R3); assay: ultrafiltration, fluorescence of unbound FAD; format: binding; conditions: 3 µM FAD, 3 µM enzyme, 20 mM Tris-HCl pH 8.0, 25°C
T6 construct: N-terminal fragment residues 1-174, N-terminal GST tag kept, expressed in E. coli BL21(DE3), purified
T6 sequence (H8Y0R3 1-174): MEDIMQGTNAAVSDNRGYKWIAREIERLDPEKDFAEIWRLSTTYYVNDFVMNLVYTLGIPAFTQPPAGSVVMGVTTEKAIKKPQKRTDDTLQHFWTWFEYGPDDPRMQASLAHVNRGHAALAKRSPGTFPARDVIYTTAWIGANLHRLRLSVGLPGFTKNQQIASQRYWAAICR
Description: ultrafiltration, fluorescence of unbound FAD on GST-TAO (N1–174)

purified protein [2] = substrate: CC=Cc1ccc(O)c(OC)c1; assay: purified protein; conditions: 10 mM NADH, 15 µM FAD, pH 8.0, 30°C, formate dehydrogenase regeneration
Description: (§1) HPLC of aldehyde product, Michaelis-Menten nonlinear regression on GST-TAO (wild-type, N1-348)

purified protein [3] = substrate: C/C=C/c1ccc(OC)c(OC)c1; assay: purified protein; conditions: 10 mM NADH, 15 µM FAD, pH 8.0, 30°C, formate dehydrogenase regeneration
Description: as §1

purified protein [4] = substrate: CC=Cc1ccc2c(c1)OCO2; assay: purified protein; conditions: 10 mM NADH, 15 µM FAD, pH 8.0, 30°C, formate dehydrogenase regeneration
Description: as §1

[5] = substrate: C/C=C/c1ccc(OC)cc1; assay: HPLC of p-anisaldehyde product, Michaelis-Menten nonlinear regression; format: biochemical, Pseudomonas putida; conditions: 10 mM NADH, 15 µM FAD, pH 8.0, 30°C, formate dehydrogenase regeneration, text b30 prints 64.70±2.40
Description: HPLC of p-anisaldehyde product, Michaelis-Menten nonlinear regression on GST-TAO (wild-type, N1-348)

`Cc1cc2nc3c(=O)[nH]c(=O)nc-3n(C[C@H](O)[C@H](O)[C@H](O)COP(=O)(O)OP(=O)(O)OC[C@H]3O[C@@H](n4cnc5c(N)ncnc54)[C@H](O)[C@@H]3O)c2cc1C` [FAD] was tested, and the “μM FAD/μM enzyme” value (GST-TAO (N1–104)) was 0.20±0.01 µM FAD/µM enzyme, the “μM FAD/μM enzyme” value [1] was 0.30±0.05 µM FAD/µM enzyme and the “μM FAD/μM enzyme” value (GST-TAO (N175–348)) was 0.02±0.02 µM FAD/µM enzyme. The “μM FAD/μM enzyme” value (GST-TAO (N1–261)) was 0.15±0.04 µM FAD/µM enzyme, the “μM FAD/μM enzyme” value (GST-TAO (N1–304)) was 0.19±0.04 µM FAD/µM enzyme and the “μM FAD/μM enzyme” value (GST-TAO (N1–174)) was 0.18±0.03 µM FAD/µM enzyme.

B1: GST-TAO (wild-type, N1-348) (Pseudomonas putida) (protein)
chain: T2 sequence (H8Y0R3 1-348)
notes: full length TAO (348 aa, 39,328 Da calculated), N-terminal GST tag kept (pGEX-5X-1), expressed in E. coli BL21(DE3), GSTrap purified, 68 kDa on SDS-PAGE
B1 gave a Km (purified protein [2]) of 2255.00 ± 346.48 µM, a Vmax (purified protein [2]) of 0.52 µmol/min/mg and a kcat (purified protein [2]) of 1.13 s⁻¹. The kcat/Km (purified protein [2]) was 500 M⁻¹ s⁻¹, the Km (purified protein [3]) was 225.65 ± 22.27 µM and the Vmax (purified protein [3]) was 0.06 µmol/min/mg. It also gave a kcat (purified protein [3]) of 0.13 s⁻¹, a kcat/Km (purified protein [3]) of 560 M⁻¹ s⁻¹ and a Km (purified protein [4]) of 229.50 ± 32.10 µM. For the same molecule, the Vmax (purified protein [4]) was 0.26 µmol/min/mg, the kcat (purified protein [4]) was 0.56 s⁻¹ and the kcat/Km (purified protein [4]) was 2450 M⁻¹ s⁻¹. For the same molecule, the Km [5] was 63.70 ± 2.40 µM, the Vmax [5] was 0.23 µmol/min/mg and the kcat [5] was 0.49 s⁻¹. The kcat/Km [5] was 7690 M⁻¹ s⁻¹.
